Measurements: IntAct's records for PubMed 35512704

B1: Speckle-type POZ protein (Homo sapiens), O43791 (parent)
chain: MSRVPSPPPPAEMSSGPVAESWCYTQIKVVKFSYMWTINNFSFCREEMGEVIKSSTFSSGANDKLKWCLRVNPKGLDEESKDYLSLYLLLVSCPKSEVRAKFKFSILNAKGEETKAMESQRAYRFVQGKDWGFKKFIRRDFLLDEANGLLPDDKLTLFCEVSVVQDSVNISGQNTMNMVKVPECRLADELGGLWENSRFTDCCLCVAGQEFQAHKAILAARSPVFSAMFEHEMEESKKNRVEINDVEPEVFKEMMCFIYTGKAPNLDKMADDLLAAADKYALERLKVMCEDALCSNLSVENAAEILILADLHSADQLKTQAVDFINYHASDVLETSGWKSMVVSHPHLVAEAYRSLASAQCPFLGPPRKRLKQS

Variants of: B1
Settings: with brd4_human BRD4, O60885

Variant | effect of a mutation on the interaction
F102C | disrupting interaction strength

Variants of: B1
Settings: with ncoa3_human NCOA3, Q9Y6Q9

Variant | effect of a mutation on the interaction
F102C | disrupting interaction strength

Variants of: B1
Settings: with jun_human JUN

Variant | effect of a mutation on the interaction
F102C | disrupting interaction strength

Variants of: B1
Settings: with akt1_human AKT1, P31749

Variant | effect of a mutation on the interaction
F102C | with no effect

Variants of: B1
Settings: with alk_human ALK

Variant | effect of a mutation on the interaction
F102C | with no effect

Variants of: B1
Settings: with aph1a_human APH1A

Variant | effect of a mutation on the interaction
F102C | with no effect

Variants of: B1
Settings: with arnt_human ARNT

Variant | effect of a mutation on the interaction
F102C | with no effect

Variants of: B1
Settings: with arc1a_human ARPC1A

Variant | effect of a mutation on the interaction
F102C | with no effect

Variants of: B1
Settings: with bakor_human ATG14, Q6ZNE5

Variant | effect of a mutation on the interaction
F102C | with no effect

Variants of: B1
Settings: with atm_human ATM

Variant | effect of a mutation on the interaction
F102C | with no effect

Variants of: B1
Settings: with atpb_human ATP5F1B

Variant | effect of a mutation on the interaction
F102C | with no effect

Variants of: B1
Settings: with aurkb_human AURKB

Variant | effect of a mutation on the interaction
F102C | with no effect

Variants of: B1
Settings: with axin2_human AXIN2, Q9Y2T1

Variant | effect of a mutation on the interaction
F102C | with no effect

Variants of: B1
Settings: with ufo_human AXL

Variant | effect of a mutation on the interaction
F102C | with no effect

Variants of: B1
Settings: with za2g_human AZGP1, P25311

Variant | effect of a mutation on the interaction
F102C | with no effect

Variants of: B1
Settings: with bap1_human BAP1, Q92560
bap1_human BAP1, Q92560, sequence (Q92560 whole entry): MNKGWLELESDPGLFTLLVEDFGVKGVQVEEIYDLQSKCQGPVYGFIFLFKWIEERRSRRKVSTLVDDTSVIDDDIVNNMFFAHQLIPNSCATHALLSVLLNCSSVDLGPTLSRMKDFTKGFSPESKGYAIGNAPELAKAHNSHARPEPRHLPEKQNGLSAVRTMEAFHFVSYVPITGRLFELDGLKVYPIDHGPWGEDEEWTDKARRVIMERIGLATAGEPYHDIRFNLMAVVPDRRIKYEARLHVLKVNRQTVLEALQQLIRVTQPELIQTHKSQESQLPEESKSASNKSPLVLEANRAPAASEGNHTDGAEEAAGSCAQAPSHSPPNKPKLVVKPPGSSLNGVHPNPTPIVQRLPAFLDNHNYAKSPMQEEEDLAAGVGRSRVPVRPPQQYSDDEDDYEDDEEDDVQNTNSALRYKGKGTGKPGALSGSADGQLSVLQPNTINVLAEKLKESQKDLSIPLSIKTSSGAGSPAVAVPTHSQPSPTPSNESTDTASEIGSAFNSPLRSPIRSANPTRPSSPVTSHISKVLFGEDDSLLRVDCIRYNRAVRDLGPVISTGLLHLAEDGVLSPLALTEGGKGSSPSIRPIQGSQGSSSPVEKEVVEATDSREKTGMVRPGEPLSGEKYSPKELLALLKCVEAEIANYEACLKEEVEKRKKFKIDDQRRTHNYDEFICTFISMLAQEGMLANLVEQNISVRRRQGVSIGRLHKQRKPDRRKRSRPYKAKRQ

Variant | effect of a mutation on the interaction
F102C | with no effect

Variants of: B1
Settings: with bard1_human BARD1, Q99728

Variant | effect of a mutation on the interaction
F102C | with no effect

Variants of: B1
Settings: with bcor_human BCOR

Variant | effect of a mutation on the interaction
F102C | with no effect

Variants of: B1
Settings: with birc2_human BIRC2, Q13490

Variant | effect of a mutation on the interaction
F102C | with no effect

Variants of: B1
Settings: with brd4_human BRD4, O60885
Remark: another data set of the same source

Variant | effect of a mutation on the interaction
F102C | with no effect

Variants of: B1
Settings: with baba2_human BABAM2, Q9NXR7

Variant | effect of a mutation on the interaction
F102C | with no effect

Variants of: B1
Settings: with btg1_human BTG1, P62324

Variant | effect of a mutation on the interaction
F102C | with no effect

Variants of: B1
Settings: with btk_human BTK

Variant | effect of a mutation on the interaction
F102C | with no effect

Variants of: B1
Settings: with ccnd1_human CCND1, P24385

Variant | effect of a mutation on the interaction
F102C | with no effect

Variants of: B1
Settings: with ccnd2_human CCND2, P30279

Variant | effect of a mutation on the interaction
F102C | with no effect

Variants of: B1
Settings: with ccnd3_human CCND3, P30281

Variant | effect of a mutation on the interaction
F102C | with no effect

Variants of: B1
Settings: with cd44_human CD44, P16070

Variant | effect of a mutation on the interaction
F102C | with no effect

Variants of: B1
Settings: with cd79b_human CD79B

Variant | effect of a mutation on the interaction
F102C | with no effect

Variants of: B1
Settings: with cdc27_human CDC27, P30260

Variant | effect of a mutation on the interaction
F102C | with no effect

Variants of: B1
Settings: with cdc73_human CDC73, Q6P1J9

Variant | effect of a mutation on the interaction
F102C | with no effect

Variants of: B1
Settings: with cdk4_human CDK4, P11802
cdk4_human CDK4, P11802, sequence (P11802 whole entry): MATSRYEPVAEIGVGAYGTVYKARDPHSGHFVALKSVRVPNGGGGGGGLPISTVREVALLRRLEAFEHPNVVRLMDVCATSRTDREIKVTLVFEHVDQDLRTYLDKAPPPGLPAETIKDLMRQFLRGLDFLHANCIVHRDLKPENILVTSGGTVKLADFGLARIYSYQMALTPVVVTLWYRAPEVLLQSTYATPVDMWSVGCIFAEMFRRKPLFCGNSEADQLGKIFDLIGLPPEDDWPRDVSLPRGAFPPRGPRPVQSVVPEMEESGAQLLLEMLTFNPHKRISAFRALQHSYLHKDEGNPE

Variant | effect of a mutation on the interaction
F102C | with no effect

Variants of: B1
Settings: with cdk6_human CDK6, Q00534

Variant | effect of a mutation on the interaction
F102C | with no effect

Variants of: B1
Settings: with cdn2c_human CDKN2C

Variant | effect of a mutation on the interaction
F102C | with no effect

Variants of: B1
Settings: with chd1l_human CHD1L

Variant | effect of a mutation on the interaction
F102C | with no effect

Variants of: B1
Settings: with chd2_human CHD2, O14647

Variant | effect of a mutation on the interaction
F102C | with no effect

Variants of: B1
Settings: with ch3l1_human CHI3L1, P36222
ch3l1_human CHI3L1, P36222, sequence (P36222 whole entry): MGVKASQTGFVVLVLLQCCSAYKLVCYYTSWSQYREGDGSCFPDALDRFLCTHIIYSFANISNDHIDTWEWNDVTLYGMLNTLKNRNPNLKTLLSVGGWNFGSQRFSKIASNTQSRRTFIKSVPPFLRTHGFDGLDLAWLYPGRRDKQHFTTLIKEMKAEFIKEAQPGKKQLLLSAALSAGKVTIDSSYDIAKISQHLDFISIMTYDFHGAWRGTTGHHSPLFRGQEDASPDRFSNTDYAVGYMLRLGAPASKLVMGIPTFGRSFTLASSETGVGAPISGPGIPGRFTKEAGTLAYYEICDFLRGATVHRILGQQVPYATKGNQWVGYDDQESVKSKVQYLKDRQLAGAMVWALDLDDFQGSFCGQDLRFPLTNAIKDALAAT

Variant | effect of a mutation on the interaction
F102C | with no effect

Variants of: B1
Settings: with ctla4_human CTLA4, P16410

Variant | effect of a mutation on the interaction
F102C | with no effect

Variants of: B1
Settings: with cul3_human CUL3, Q13618

Variant | effect of a mutation on the interaction
F102C | with no effect

Variants of: B1
Settings: with cul4b_human CUL4B

Variant | effect of a mutation on the interaction
F102C | with no effect

Variants of: B1
Settings: with daxx_human DAXX

Variant | effect of a mutation on the interaction
F102C | with no effect

Variants of: B1
Settings: with ddx5_human DDX5, P17844
ddx5_human DDX5, P17844, sequence (P17844 whole entry): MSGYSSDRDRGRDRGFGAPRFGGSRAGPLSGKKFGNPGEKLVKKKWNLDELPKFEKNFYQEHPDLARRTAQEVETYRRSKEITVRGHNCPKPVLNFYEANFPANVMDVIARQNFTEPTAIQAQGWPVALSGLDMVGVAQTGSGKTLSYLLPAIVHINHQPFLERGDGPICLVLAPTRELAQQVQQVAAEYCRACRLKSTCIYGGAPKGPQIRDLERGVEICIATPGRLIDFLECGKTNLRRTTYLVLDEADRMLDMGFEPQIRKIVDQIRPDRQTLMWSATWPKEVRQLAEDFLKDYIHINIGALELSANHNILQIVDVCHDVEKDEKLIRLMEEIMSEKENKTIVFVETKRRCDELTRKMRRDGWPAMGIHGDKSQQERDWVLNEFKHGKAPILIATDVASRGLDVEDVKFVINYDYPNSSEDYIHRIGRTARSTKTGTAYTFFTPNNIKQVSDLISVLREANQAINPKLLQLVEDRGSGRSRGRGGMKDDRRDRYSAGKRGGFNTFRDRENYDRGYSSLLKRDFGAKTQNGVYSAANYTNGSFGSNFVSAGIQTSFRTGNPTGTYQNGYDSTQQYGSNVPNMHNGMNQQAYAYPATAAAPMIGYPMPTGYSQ

Variant | effect of a mutation on the interaction
F102C | with no effect

Variants of: B1
Settings: with dll3_human DLL3, Q9NYJ7

Variant | effect of a mutation on the interaction
F102C | with no effect

Variants of: B1
Settings: with duox2_human DUOX2, Q9NRD8

Variant | effect of a mutation on the interaction
F102C | with no effect

Variants of: B1
Settings: with e2f2_human E2F2, Q14209

Variant | effect of a mutation on the interaction
F102C | with no effect

Variants of: B1
Settings: with e2f3_human E2F3, O00716
e2f3_human E2F3, O00716, sequence (O00716 whole entry): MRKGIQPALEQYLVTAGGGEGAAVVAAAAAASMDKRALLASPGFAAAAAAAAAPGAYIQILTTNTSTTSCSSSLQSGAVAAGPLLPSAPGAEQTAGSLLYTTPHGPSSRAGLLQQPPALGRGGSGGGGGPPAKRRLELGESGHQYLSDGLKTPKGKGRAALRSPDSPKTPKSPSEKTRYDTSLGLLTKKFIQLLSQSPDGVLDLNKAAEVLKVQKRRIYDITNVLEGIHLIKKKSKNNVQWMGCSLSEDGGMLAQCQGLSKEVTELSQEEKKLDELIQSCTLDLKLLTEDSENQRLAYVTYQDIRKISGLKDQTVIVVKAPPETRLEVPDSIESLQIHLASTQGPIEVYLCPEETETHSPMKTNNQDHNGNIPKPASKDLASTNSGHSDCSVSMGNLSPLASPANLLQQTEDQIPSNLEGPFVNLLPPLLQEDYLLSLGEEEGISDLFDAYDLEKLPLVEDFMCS

Variant | effect of a mutation on the interaction
F102C | with no effect

Variants of: B1
Settings: with e2f5_human E2F5, Q15329
e2f5_human E2F5, Q15329, sequence (Q15329 whole entry): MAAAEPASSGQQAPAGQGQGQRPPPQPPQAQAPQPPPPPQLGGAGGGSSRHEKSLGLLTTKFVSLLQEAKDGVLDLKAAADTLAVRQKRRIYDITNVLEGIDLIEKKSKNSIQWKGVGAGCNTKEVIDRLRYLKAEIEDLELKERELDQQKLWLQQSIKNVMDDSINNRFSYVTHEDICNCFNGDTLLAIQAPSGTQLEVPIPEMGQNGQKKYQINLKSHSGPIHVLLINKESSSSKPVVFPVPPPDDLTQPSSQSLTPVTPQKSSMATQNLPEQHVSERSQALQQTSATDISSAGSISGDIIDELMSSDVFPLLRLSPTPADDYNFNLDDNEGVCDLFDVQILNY

Variant | effect of a mutation on the interaction
F102C | with no effect

Variants of: B1
Settings: with e2f6_human E2F6, O75461

Variant | effect of a mutation on the interaction
F102C | with no effect

Variants of: B1
Settings: with e2f8_human E2F8, A0AVK6

Variant | effect of a mutation on the interaction
F102C | with no effect

Variants of: B1
Settings: with if4e_human EIF4E

Variant | effect of a mutation on the interaction
F102C | with no effect

Variants of: B1
Settings: with epha7_human EPHA7, Q15375

Variant | effect of a mutation on the interaction
F102C | with no effect

Variants of: B1
Settings: with ephb1_human EPHB1, P54762

Variant | effect of a mutation on the interaction
F102C | with no effect

Variants of: B1
Settings: with erbb3_human ERBB3, P21860

Variant | effect of a mutation on the interaction
F102C | with no effect

Variants of: B1
Settings: with erbb4_human ERBB4, Q15303

Variant | effect of a mutation on the interaction
F102C | with no effect

Variants of: B1
Settings: with esr1_human ESR1, P03372

Variant | effect of a mutation on the interaction
F102C | with no effect

Variants of: B1
Settings: with etv1_human ETV1, P50549

Variant | effect of a mutation on the interaction
F102C | with no effect

Variants of: B1
Settings: with ezh1_human EZH1, Q92800
ezh1_human EZH1, Q92800, sequence (Q92800 whole entry): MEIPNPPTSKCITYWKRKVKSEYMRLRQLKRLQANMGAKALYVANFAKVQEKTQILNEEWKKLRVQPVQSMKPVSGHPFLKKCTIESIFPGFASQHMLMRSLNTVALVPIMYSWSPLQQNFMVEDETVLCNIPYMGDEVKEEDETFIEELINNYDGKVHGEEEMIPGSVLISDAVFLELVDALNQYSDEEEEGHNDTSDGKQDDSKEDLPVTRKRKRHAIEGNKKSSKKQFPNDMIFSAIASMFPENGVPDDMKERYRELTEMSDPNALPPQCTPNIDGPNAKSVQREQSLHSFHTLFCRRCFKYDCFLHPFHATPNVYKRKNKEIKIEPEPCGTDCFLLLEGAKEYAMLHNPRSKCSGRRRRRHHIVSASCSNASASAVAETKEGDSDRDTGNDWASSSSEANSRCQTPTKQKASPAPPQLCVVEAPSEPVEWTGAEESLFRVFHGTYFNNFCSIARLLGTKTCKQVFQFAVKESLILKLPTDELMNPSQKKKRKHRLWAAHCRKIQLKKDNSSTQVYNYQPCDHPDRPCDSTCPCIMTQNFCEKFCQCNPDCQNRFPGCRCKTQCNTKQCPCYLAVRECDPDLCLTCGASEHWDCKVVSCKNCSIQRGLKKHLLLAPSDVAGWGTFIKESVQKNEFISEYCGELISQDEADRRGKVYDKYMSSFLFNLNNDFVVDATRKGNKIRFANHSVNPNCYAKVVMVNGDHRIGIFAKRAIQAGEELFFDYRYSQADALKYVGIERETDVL

Variant | effect of a mutation on the interaction
F102C | with no effect

Variants of: B1
Settings: with ezh2_human EZH2, Q15910

Variant | effect of a mutation on the interaction
F102C | with no effect

Variants of: B1
Settings: with facd2_human FANCD2, Q9BXW9

Variant | effect of a mutation on the interaction
F102C | with no effect

Variants of: B1
Settings: with fgf19_human FGF19, O95750

Variant | effect of a mutation on the interaction
F102C | with no effect

Variants of: B1
Settings: with fgfp1_human FGFBP1, Q14512

Variant | effect of a mutation on the interaction
F102C | with no effect

Variants of: B1
Settings: with fgfr4_human FGFR4, P22455

Variant | effect of a mutation on the interaction
F102C | with no effect

Variants of: B1
Settings: with fumh_human FH

Variant | effect of a mutation on the interaction
F102C | with no effect

Variants of: B1
Settings: with fzr1_human FZR1, Q9UM11

Variant | effect of a mutation on the interaction
F102C | with no effect

Variants of: B1
Settings: with gbra6_human GABRA6, Q16445

Variant | effect of a mutation on the interaction
F102C | with no effect

Variants of: B1
Settings: with gata1_human GATA1, P15976

Variant | effect of a mutation on the interaction
F102C | with no effect

Variants of: B1
Settings: with p66b_human GATAD2B

Variant | effect of a mutation on the interaction
F102C | with no effect

Variants of: B1
Settings: with gna11_human GNA11, P29992

Variant | effect of a mutation on the interaction
F102C | with no effect

Variants of: B1
Settings: with gna13_human GNA13, Q14344

Variant | effect of a mutation on the interaction
F102C | with no effect

Variants of: B1
Settings: with gnaq_human GNAQ

Variant | effect of a mutation on the interaction
F102C | with no effect

Variants of: B1
Settings: with grm1_human GRM1, Q13255

Variant | effect of a mutation on the interaction
F102C | with no effect

Variants of: B1
Settings: with grm3_human GRM3, Q14832
grm3_human GRM3, Q14832, sequence (Q14832 whole entry, looked up): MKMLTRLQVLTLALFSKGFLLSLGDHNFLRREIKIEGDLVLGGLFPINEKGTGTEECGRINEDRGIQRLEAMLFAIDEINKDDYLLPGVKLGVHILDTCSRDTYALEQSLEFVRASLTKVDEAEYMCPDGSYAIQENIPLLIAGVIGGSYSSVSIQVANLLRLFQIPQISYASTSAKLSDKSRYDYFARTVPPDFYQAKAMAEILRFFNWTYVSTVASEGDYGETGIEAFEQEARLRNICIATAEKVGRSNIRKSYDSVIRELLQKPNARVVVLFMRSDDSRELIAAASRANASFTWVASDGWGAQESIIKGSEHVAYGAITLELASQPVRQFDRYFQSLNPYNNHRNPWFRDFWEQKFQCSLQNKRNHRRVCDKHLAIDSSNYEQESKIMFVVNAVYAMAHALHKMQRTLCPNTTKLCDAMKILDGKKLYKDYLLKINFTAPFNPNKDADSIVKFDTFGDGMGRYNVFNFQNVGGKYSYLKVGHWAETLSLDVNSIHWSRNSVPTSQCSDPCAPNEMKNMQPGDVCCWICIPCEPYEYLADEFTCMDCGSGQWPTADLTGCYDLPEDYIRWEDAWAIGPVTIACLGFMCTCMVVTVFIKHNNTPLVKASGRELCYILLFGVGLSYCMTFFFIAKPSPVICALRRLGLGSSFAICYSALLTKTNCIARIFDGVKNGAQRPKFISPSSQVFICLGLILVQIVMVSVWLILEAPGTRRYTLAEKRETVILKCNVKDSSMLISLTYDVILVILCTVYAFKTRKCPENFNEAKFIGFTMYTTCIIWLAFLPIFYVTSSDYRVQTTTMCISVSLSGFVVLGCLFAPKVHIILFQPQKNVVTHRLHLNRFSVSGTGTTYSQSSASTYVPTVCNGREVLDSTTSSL

Variant | effect of a mutation on the interaction
F102C | with no effect

Variants of: B1
Settings: with gtpb4_human GTPBP4, Q9BZE4

Variant | effect of a mutation on the interaction
F102C | with no effect

Variants of: B1
Settings: with h33_human H3-3A

Variant | effect of a mutation on the interaction
F102C | with no effect

Variants of: B1
Settings: with hdac1_human HDAC1, Q13547
hdac1_human HDAC1, Q13547, sequence (Q13547 whole entry): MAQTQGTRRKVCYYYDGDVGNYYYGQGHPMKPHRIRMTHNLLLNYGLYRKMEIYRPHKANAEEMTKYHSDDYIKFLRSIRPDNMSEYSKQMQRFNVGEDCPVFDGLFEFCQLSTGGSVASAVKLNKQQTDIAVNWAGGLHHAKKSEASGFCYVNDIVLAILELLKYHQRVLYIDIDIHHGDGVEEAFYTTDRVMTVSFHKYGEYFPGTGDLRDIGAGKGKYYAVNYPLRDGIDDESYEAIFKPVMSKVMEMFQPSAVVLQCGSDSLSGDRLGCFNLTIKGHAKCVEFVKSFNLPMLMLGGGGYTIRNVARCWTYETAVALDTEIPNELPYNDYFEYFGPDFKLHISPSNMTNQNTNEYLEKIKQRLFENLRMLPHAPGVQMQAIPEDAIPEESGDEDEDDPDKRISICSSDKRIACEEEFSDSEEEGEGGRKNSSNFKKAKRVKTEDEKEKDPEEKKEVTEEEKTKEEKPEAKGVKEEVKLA

Variant | effect of a mutation on the interaction
F102C | with no effect

Variants of: B1
Settings: with hdac3_human HDAC3, O15379

Variant | effect of a mutation on the interaction
F102C | with no effect

Variants of: B1
Settings: with hgf_human HGF

Variant | effect of a mutation on the interaction
F102C | with no effect

Variants of: B1
Settings: with h31_human H3C1, P68431

Variant | effect of a mutation on the interaction
F102C | with no effect

Variants of: B1
Settings: with hlab_human HLA-B

Variant | effect of a mutation on the interaction
F102C | with no effect

Variants of: B1
Settings: with il7ra_human IL7R

Variant | effect of a mutation on the interaction
F102C | with no effect

Variants of: B1
Settings: with int12_human INTS12, Q96CB8

Variant | effect of a mutation on the interaction
F102C | with no effect

Variants of: B1
Settings: with jak1_human JAK1, P23458

Variant | effect of a mutation on the interaction
F102C | with no effect

Variants of: B1
Settings: with jak3_human JAK3, P52333

Variant | effect of a mutation on the interaction
F102C | with no effect

Variants of: B1
Settings: with kat2a_human KAT2A

Variant | effect of a mutation on the interaction
F102C | with no effect

Variants of: B1
Settings: with kdm5a_human KDM5A

Variant | effect of a mutation on the interaction
F102C | with no effect

Variants of: B1
Settings: with kdm5c_human KDM5C

Variant | effect of a mutation on the interaction
F102C | with no effect

Variants of: B1
Settings: with kdm6a_human KDM6A

Variant | effect of a mutation on the interaction
F102C | with no effect

Variants of: B1
Settings: with vgfr2_human KDR

Variant | effect of a mutation on the interaction
F102C | with no effect

Variants of: B1
Settings: with lims1_human LIMS1, P48059

Variant | effect of a mutation on the interaction
F102C | with no effect

Variants of: B1
Settings: with maga6_human MAGEA6, P43360

Variant | effect of a mutation on the interaction
F102C | with no effect

Variants of: B1
Settings: with m3k1_human MAP3K1, Q13233

Variant | effect of a mutation on the interaction
F102C | with no effect
